Assay results taken from US20220153832A1 (PIONYR IMMUNOTHERAPEUTICS, published 2022).

T1: N-terminal his-tagged mouse MARCO protein, recombinant (mouse, UniProt Q60754 150-518)
T1 construct: The entry holds the His tag, the CLD and the SRCR domain; also called mMARCO (RG3016); PI-RG-3016
T1 sequence: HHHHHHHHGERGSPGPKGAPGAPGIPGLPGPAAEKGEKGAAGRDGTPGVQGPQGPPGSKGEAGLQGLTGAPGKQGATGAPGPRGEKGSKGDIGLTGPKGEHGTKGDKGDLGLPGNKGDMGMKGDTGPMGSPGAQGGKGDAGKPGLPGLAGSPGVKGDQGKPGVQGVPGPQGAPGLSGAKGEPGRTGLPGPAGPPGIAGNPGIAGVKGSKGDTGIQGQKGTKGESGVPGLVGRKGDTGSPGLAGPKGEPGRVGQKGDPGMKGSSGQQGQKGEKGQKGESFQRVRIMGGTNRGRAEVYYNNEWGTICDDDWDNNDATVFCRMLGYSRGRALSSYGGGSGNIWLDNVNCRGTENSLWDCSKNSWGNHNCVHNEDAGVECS

T2: N-terminally polyhistidine tagged human MARCO ECD (147-520), recombinant (human, UniProt Q9UEW3 147-520)
T2 construct: also called PI-RG-3000; recombinant human MARCO; not shown: N-terminal polyhistidine tag
T2 sequence: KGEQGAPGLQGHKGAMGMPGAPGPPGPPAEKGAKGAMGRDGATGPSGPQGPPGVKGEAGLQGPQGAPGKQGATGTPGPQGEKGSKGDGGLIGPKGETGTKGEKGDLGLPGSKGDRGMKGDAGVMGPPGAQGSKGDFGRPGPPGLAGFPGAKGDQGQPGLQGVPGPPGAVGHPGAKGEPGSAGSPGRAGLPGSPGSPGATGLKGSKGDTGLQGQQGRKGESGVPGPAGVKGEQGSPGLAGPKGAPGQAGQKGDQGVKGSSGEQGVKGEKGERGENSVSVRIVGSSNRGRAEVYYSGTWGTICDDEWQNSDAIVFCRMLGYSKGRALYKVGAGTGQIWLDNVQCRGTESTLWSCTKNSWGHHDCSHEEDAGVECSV

B1: PI-HX-3061 (antibody, rat IgG2a)
heavy: EVQLVESGGGLVQPGSSLKLSCVASKFTFSNYGMNWIRQAPKKGLEWIALIYYNSNNKYYADSVKGRFTISRDNSKNTLYLEMNSLRSEDTAMYYCAKSLTGGSDYFDSWGQGVMVTVSSAETTAPSVYPLAPGTALKSNSMVTLGCLVKGYFPEPVTVTWNSGALSSGVHTFPAVLQSGLYTLTSSVTVPSSTWPSQTVTCNVAHPASSTKVDKKIVPRNCGGDCKPCICTGSEVSSVFIFPPKPKDVLTITLTPKVTCVVVDISQDDPEVHFSWFVDDVEVHTAQTRPPEEQFNSTFRSVSELPILHQDWLNGRTFRCKVTSAAFPSPIEKTISKPEGRTQVPHVYTMSPTKEEMTQNEVSITCMVKGFYPPDIYVEWQMNGQPQENYKNTPPTMDTDGSYFLYSKLNVKKEKWQQGNTFTCSVLHEGLHNHHTEKSLSHSP
light: DVQMTQSPSYLAASPGESVSISCKASKSIGTFLAWYQEKPEKTNKLLIYSGSTLQSGTPSRFSGSGSGTDFTLTIRNLEPEDFAVYYCQQHDEYPFTFGSGTKLEIKRADAAPTVSIFPPSTEQLATGGASVVCLMNNFYPRDISVKWKIDGTERRDGVLDSVTDQDSKDSTYSMSSTLSLTKADYESHNLYTCEVVHKTSSSPVVKSFNRNEC
notes: Parental rat hybridoma, rat IgG2a; cross reactive with human and mouse MARCO
B2: PI-3015-AB (antibody, human IgG1, kappa)
heavy: not shown
light: DIQMTQSPSSLSASVGDRVTITCRASEGISNDLAWYQQKPGKAPKLLIYAASRLQSGVPSRFSGSGSGTDYTLTISSMQPEDFATYYCQQSYKYPLTFGQGTKLEIKRTVAAPSVFIFPPSDEQLKSGTASVVCLLNNFYPREAKVQWKVDNALQSGNSQESVTEQDSKDSTYSLSSTLTLSKADYEKHKVYACEVTHQGLSSPVTKSFNRGEC

Tests used:
[1] = target: T1, N-terminal his-tagged mouse MARCO …; assay: Biacore
[2] = target: T2, N-terminally polyhistidine tagged human …; assay: Biacore (SPR), recombinant human MARCO
Summary of the method: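 Binding kinetics and affinity of antibodies for the N-terminally His-tagged human MARCO extracellular domain (147-520) were determined by surface plasmon resonance with multi-cycle kinetics on a Biacore T200. The antibodies were captured on a CM4 chip carrying amine-coupled anti-mouse Fc mAb (4500 RU target), and the runs were done at 25° C in 10 mM HEPES pH 7.4, 150 mM NaCl, 3 mM EDTA, 0.05% surfactant P20. The analyte was injected at 0.625–10 nM with 90 s association and 600 s dissociation, and the constants were fitted in BIAevaluation 3.1.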

| Binder | Kd [1] | Kd [2] | koff [2] |
| --- | --- | --- | --- |
| B1 | < 0.02 nM | – | – |
| B2 | – | 0.51 nM | 0.000294 s⁻¹ |
